Measurements taken from US20150368338A1 (Janssen / Centocor, published 2015).

T1: IFN-αF (human, UniProt P01568 24-189)
T1 construct: Recombinant, HEK293; also called IFN-α21
T1 chain: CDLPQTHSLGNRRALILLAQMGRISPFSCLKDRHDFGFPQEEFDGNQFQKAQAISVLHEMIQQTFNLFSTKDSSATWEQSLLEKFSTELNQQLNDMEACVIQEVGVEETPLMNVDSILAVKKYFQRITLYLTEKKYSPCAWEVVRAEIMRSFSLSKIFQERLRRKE


How the values were obtained:
Test in all cases: ProteOn SPR, cell supernatant;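 further: each binding measurement used just a single antigen concentration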
IFN-α4a = target: T2, IFN-α4a (human, UniProt P05014 24-189)
T2 construct: Recombinant, HEK293; also called IFN-αM1

IFN-αF = target: T1, IFN-αF
IFN-αC = target: T3, IFN-αC (human, UniProt P01566 24-189)
T3 construct: Recombinant, HEK293; also called IFN-α10

IFN-αWA = target: T4, IFN-αWA (human, UniProt P05015 24-189)
T4 construct: Recombinant, HEK293; also called IFN-α16

IFN-αJ1 = target: T5, IFN-αJ1 (human, UniProt P01567 24-189)
T5 construct: Recombinant, HEK293; also called IFN-α7

IFN-αG = target: T6, IFN-αG (human, UniProt P01569 24-189)
T6 construct: Recombinant, HEK293; also called IFN-α5

human IFN-ω = target: T7, human IFN-ω (human, UniProt P05000 24-195)
T7 construct: Recombinant, HEK293; also called interferon omega

Kd (IFN-α4a) | Kd (IFN-αF) | Kd (IFN-αC) | Kd (IFN-αWA) | Kd (IFN-αJ1) | Kd (IFN-αG) | Kd (human IFN-ω) | Binder
0.072 nM | 0.013 nM | 0.013 nM | 0.023 nM | 0.033 nM | 0.013 nM | 0.015 nM | IFWM3379 (antibody, IgG1, V domains shown, mAb; IgG1/kappa said of the parent and of selected mAbs; also called IFWB3114) VH: EVQLVQSGAEVKKPGESLKISCKGSGYSFTSYWIGWVRQMPGKGLEWMGIIDPSDSDTRYSPSFQGQVTISADKSISTAYLQWSSLKASDTAMYYCARHPGLAWAPDFDYWGQGTLVTVSS VL: DIQMTQSPSSLSASVGDRVTITCRASQSIDGSLNWYQQKPGKAPKLLIYFASSLQSGVPSRFSGSGSGTDFTLTISSLQPEDFATYYCQQSYDFPLTFGQGTKVEIK
0.143 nM | 0.06 nM | 0.069 nM | 0.064 nM | 0.086 nM | 0.084 nM | 0.028 nM | IFWM3383 (antibody, IgG1, V domains shown, mAb; IgG1/kappa said of the parent and of selected mAbs; also called IFWB3118) VH: EVQLVQSGAEVKKPGESLKISCKGSGYSFTSYWIGWVRQMPGKGLEWMGIIDPSDSDTRYSPSFQGQVTISADKSISTAYLQWSSLKASDTAMYYCARHPGLAWAPDFDYWGQGTLVTVSS VL: DIQMTQSPSSLSASVGDRVTITCRASQSISKFLNWYQQKPGKAPKLLIYFASSLQSGVPSRFSGSGSGTDFTLTISSLQPEDFATYYCQQSNTLPFTFGQGTKVEIK
0.098 nM | 0.009 nM | 0.024 nM | 0.03 nM | 0.032 nM | 0.033 nM | 0.017 nM | IFWM3389 (antibody, IgG1, V domains shown, mAb; IgG1/kappa said of the parent and of selected mAbs; also called IFWB3124) VH: EVQLVQSGAEVKKPGESLKISCKGSGYSFTSYWIGWVRQMPGKGLEWMGIIDPSDSDTRYSPSFQGQVTISADKSISTAYLQWSSLKASDTAMYYCARHPGLAWAPDFDYWGQGTLVTVSS VL: DIQMTQSPSSLSASVGDRVTITCRASQSIDDFLNWYQQKPGKAPKLLIYFASSLQSGVPSRFSGSGSGTDFTLTISSLQPEDFATYYCQQSHTLPLTFGQGTKVEIK
0.088 nM | 0.032 nM | 0.046 nM | 0.059 nM | 0.076 nM | 0.07 nM | 0.025 nM | IFWM3380 (antibody, IgG1, V domains shown, mAb; IgG1/kappa said of the parent and of selected mAbs; also called IFWB3115) VH: EVQLVQSGAEVKKPGESLKISCKGSGYSFTSYWIGWVRQMPGKGLEWMGIIDPSDSDTRYSPSFQGQVTISADKSISTAYLQWSSLKASDTAMYYCARHPGLAWAPDFDYWGQGTLVTVSS VL: DIQMTQSPSSLSASVGDRVTITCRASQSINRFLNWYQQKPGKAPKLLIYAASSLQSGVPSRFSGSGSGTDFTLTISSLQPEDFATYYCQQAIDLPFTFGQGTKVEIK
0.084 nM | 0.019 nM | 0.03 nM | 0.044 nM | 0.055 nM | 0.027 nM | 0.033 nM | IFWM3388 (antibody, IgG1, V domains shown, mAb; IgG1/kappa said of the parent and of selected mAbs; also called IFWB3123) VH: EVQLVQSGAEVKKPGESLKISCKGSGYSFTSYWIGWVRQMPGKGLEWMGIIDPSDSDTRYSPSFQGQVTISADKSISTAYLQWSSLKASDTAMYYCARHPGLAWAPDFDYWGQGTLVTVSS VL: DIQMTQSPSSLSASVGDRVTITCRASQSIGKSLNWYQQKPGKAPKLLIYFASSLQSGVPSRFSGSGSGTDFTLTISSLQPEDFATYYCQQSYDFPLTFGQGTKVEIK
0.058 nM | 0.014 nM | 0.016 nM | 0.025 nM | 0.021 nM | 0.019 nM | 0.023 nM | IFWM3392 (antibody, IgG1, V domains shown, mAb; IgG1/kappa said of the parent and of selected mAbs; also called IFWB3127) VH: EVQLVQSGAEVKKPGESLKISCKGSGYSFTSYWIGWVRQMPGKGLEWMGIIDPSDSDTRYSPSFQGQVTISADKSISTAYLQWSSLKASDTAMYYCARHPGLAWAPDFDYWGQGTLVTVSS VL: DIQMTQSPSSLSASVGDRVTITCRASQSIDRALNWYQQKPGKAPKLLIYFASSLQSGVPSRFSGSGSGTDFTLTISSLQPEDFATYYCQQSFDFPLTFGQGTKVEIK
0.103 nM | 0.029 nM | 0.031 nM | 0.035 nM | 0.087 nM | 0.026 nM | 0.026 nM | IFWM3386 (antibody, IgG1, V domains shown, mAb; IgG1/kappa said of the parent and of selected mAbs; also called IFWB3121) VH: EVQLVQSGAEVKKPGESLKISCKGSGYSFTSYWIGWVRQMPGKGLEWMGIIDPSDSDTRYSPSFQGQVTISADKSISTAYLQWSSLKASDTAMYYCARHPGLAWAPDFDYWGQGTLVTVSS VL: DIQMTQSPSSLSASVGDRVTITCRASQSIAEFLNWYQQKPGKAPKLLIYFASSLQSGVPSRFSGSGSGTDFTLTISSLQPEDFATYYCQQSIDFPLTFGQGTKVEIK
0.169 nM | 0.058 nM | 0.09 nM | 0.069 nM | 0.161 nM | 0.034 nM | 0.039 nM | IFWM3387 (antibody, IgG1, V domains shown, mAb; IgG1/kappa said of the parent and of selected mAbs; also called IFWB3122) VH: EVQLVQSGAEVKKPGESLKISCKGSGYSFTSYWIGWVRQMPGKGLEWMGIIDPSDSDTRYSPSFQGQVTISADKSISTAYLQWSSLKASDTAMYYCARHPGLAWAPDFDYWGQGTLVTVSS VL: DIQMTQSPSSLSASVGDRVTITCRASQSIGGFLNWYQQKPGKAPKLLIYFASSLQSGVPSRFSGSGSGTDFTLTISSLQPEDFATYYCQQSYSLPITFGQGTKVEIK
0.171 nM | 0.092 nM | 0.079 nM | 0.067 nM | 0.121 nM | 0.053 nM | 0.045 nM | IFWM3381 (antibody, IgG1, V domains shown, mAb; IgG1/kappa said of the parent and of selected mAbs; also called IFWB3116) VH: EVQLVQSGAEVKKPGESLKISCKGSGYSFTSYWIGWVRQMPGKGLEWMGIIDPSDSDTRYSPSFQGQVTISADKSISTAYLQWSSLKASDTAMYYCARHPGLAWAPDFDYWGQGTLVTVSS VL: DIQMTQSPSSLSASVGDRVTITCRASQSIGSFLNWYQQKPGKAPKLLIYFASSLQSGVPSRFSGSGSGTDFTLTISSLQPEDFATYYCQQSYSIPITFGQGTKVEIK
0.117 nM | 0.025 nM | 0.016 nM | 0.042 nM | 0.066 nM | 0.044 nM | 0.023 nM | IFWM3391 (antibody, IgG1, V domains shown, mAb; IgG1/kappa said of the parent and of selected mAbs; also called IFWB3126) VH: EVQLVQSGAEVKKPGESLKISCKGSGYSFTSYWIGWVRQMPGKGLEWMGIIDPSDSDTRYSPSFQGQVTISADKSISTAYLQWSSLKASDTAMYYCARHPGLAWAPDFDYWGQGTLVTVSS VL: DIQMTQSPSSLSASVGDRVTITCRASQSINNFLNWYQQKPGKAPKLLIYFASSLQSGVPSRFSGSGSGTDFTLTISSLQPEDFATYYCQQSFNLPITFGQGTKVEIK
0.166 nM | 0.017 nM | 0.025 nM | 0.046 nM | 0.062 nM | 0.037 nM | 0.029 nM | IFWM3293 (antibody, IgG1, V domains shown, mAb; IgG1/kappa said of the parent and of selected mAbs; also called IFWB3028) VH: EVQLVQSGAEVKKPGESLKISCKGSGYSFTSYWIGWVRQMPGKGLEWMGIIDPSDSDTRYSPSFQGQVTISADKSISTAYLQWSSLKASDTAMYYCARHPGLAWAPDFDYWGQGTLVTVSS VL: DIQMTQSPSSLSASVGDRVTITCRASQSIDEFLNWYQQKPGKAPKLLIYFASSLQSGVPSRFSGSGSGTDFTLTISSLQPEDFATYYCQQAHSFPLTFGQGTKVEIK
0.075 nM | 0.02 nM | 0.024 nM | 0.032 nM | 0.037 nM | 0.03 nM | 0.03 nM | IFWM3382 (antibody, IgG1, V domains shown, mAb; IgG1/kappa said of the parent and of selected mAbs; also called IFWB3117) VH: EVQLVQSGAEVKKPGESLKISCKGSGYSFTSYWIGWVRQMPGKGLEWMGIIDPSDSDTRYSPSFQGQVTISADKSISTAYLQWSSLKASDTAMYYCARHPGLAWAPDFDYWGQGTLVTVSS VL: DIQMTQSPSSLSASVGDRVTITCRASQSIGSALNWYQQKPGKAPKLLIYFASSLQSGVPSRFSGSGSGTDFTLTISSLQPEDFATYYCQQSYDFPLTFGQGTKVEIK
0.077 nM | 0.033 nM | 0.029 nM | 0.017 nM | 0.068 nM | 0.022 nM | 0.026 nM | IFWM3384 (antibody, IgG1, V domains shown, mAb; IgG1/kappa said of the parent and of selected mAbs; also called IFWB3119) VH: EVQLVQSGAEVKKPGESLKISCKGSGYSFTSYWIGWVRQMPGKGLEWMGIIDPSDSDTRYSPSFQGQVTISADKSISTAYLQWSSLKASDTAMYYCARHPGLAWAPDFDYWGQGTLVTVSS VL: DIQMTQSPSSLSASVGDRVTITCRASQSITNFLNWYQQKPGKAPKLLIYFASSLQSGVPSRFSGSGSGTDFTLTISSLQPEDFATYYCQQSLDFPLTFGQGTKVEIK
0.195 nM | 0.028 nM |  | 0.076 nM | 0.078 nM | 0.067 nM | 0.062 nM | IFWM3401 (antibody, IgG1, V domains shown, mAb; IgG1/kappa said of the parent and of selected mAbs; also called IFWB3136) VH: EVQLVQSGAEVKKPGESLKISCKGSGYSFTSYWIGWVRQMPGKGLEWMGIIDPSDSDTRYSPSFQGQVTISADKSISTAYLQWSSLKASDTAMYYCARHPGLAWAPDFDYWGQGTLVTVSS VL: DIQMTQSPSSLSASVGDRVTITCRASQSITNHLNWYQQKPGKAPKLLIYFASSLQSGVPSRFSGSGSGTDFTLTISSLQPEDFATYYCQQAHNFPLTFGQGTKVEIK
0.075 nM | 0.011 nM | 0.011 nM | 0.029 nM | 0.03 nM | 0.01 nM | 0.01 nM | IFWM3390 (antibody, IgG1, V domains shown, mAb; IgG1/kappa said of the parent and of selected mAbs; also called IFWB3125) VH: EVQLVQSGAEVKKPGESLKISCKGSGYSFTSYWIGWVRQMPGKGLEWMGIIDPSDSDTRYSPSFQGQVTISADKSISTAYLQWSSLKASDTAMYYCARHPGLAWAPDFDYWGQGTLVTVSS VL: DIQMTQSPSSLSASVGDRVTITCRASQSIDGALNWYQQKPGKAPKLLIYFASSLQSGVPSRFSGSGSGTDFTLTISSLQPEDFATYYCQQSFDFPLTFGQGTKVEIK
